Assay results from the RNAGym collection of RNA variant scans (doi:10.1073/pnas.2313332121).

B1: TPR t1 (parent)
chain: GACCAAUCUGCCCUCAGAGCUCGAGAACAUCUUCGGAUGCAGAGGAGGCAGGCUUCGGUGGCGCGAUAGCGCCAACGUCCUCAACCUCCAAUGCAUCCCACCACAUGAUGAUGCCUGAAGAGCCUUGGUUUUUUG

Variants of: B1
Test: polymerase ribozyme fitness, log enrichment relative to wild type (log ratio); higher = more active; in vitro selection for triplet polymerase activity
Method in brief: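 Only genotypes with ≥10 input reads and ≥1 read per output were kept after Illumina sequencing of input and output libraries. These libraries were PCR-built, transcribed mutants of each subunit of a heterodimeric triplet polymerase ribozyme, each put through one triplicate in vitro selection round with frozen incubation at −7 °C, gel excision of extended constructs, streptavidin-bead capture and RT-PCR. Fitness is a logarithmic ratio of genotype enrichment to wild-type enrichment, from inverse-variance-weighted replicate averages, with the logarithm in base 2.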

Row | Variant | polymerase ribozyme fitness (log ratio)
1 | U9A C62U | 0.575
2 | C8U C15U G45C A50U | -1.64
3 | C8U C28U C56A U87G A119G U130C | -1.12
4 | U9A A24U G71A G107A U125G | -7.09
5 | U9A C62U G63A A95C A103G U109A | -7.15
6 | U9A G107A | -4.08
7 | C8U C12G G17C C80U A90U | -2.49
8 | C8U G10U A27U U59C | -3.06
9 | U9A G110U G117A | -2.51
10 | U9A G47U C79A A83C | -3.93
11 | C8U C94U | 0.9
12 | U9A G44U C123A | 0.274
13 | C8U C34A G44U G61A U130G | -4.33
14 | C8U C88G | -0.442
15 | U9A C62A C86A C98U | -2.77
16 | C8U U109A | -5.29
17 | C8U C49U C94G C104U U106A U112C | -1.29
18 | C8U C34A A119G | -1.9
19 | U9A C31G G60A C89G A111C G127A | -7
20 | U9A G113A | -0.103
21 | C8U U112A | 1.33

Row | Variant | polymerase ribozyme fitness (log ratio)
22 | U9A G93A U106C | -0.115
23 | U9A C13U C64G | -5.17
24 | U9A C124U | 1.21
25 | C8U G57A | -0.0154
26 | C8U G39A C94G C99U | -4.71
27 | C8U C13U C22G U59A U81C U109A | -5.73
28 | U9A C40G G71U | -0.173
29 | U9A G36U | 0.766
30 | C8U C34A G44U G61U U130G | -4.49
31 | C8U U21G | -0.546
32 | C8U G52C U78C G110C | -5.87
33 | U9A G36U G63U | -1.27
34 | U9A C15A C56G C70U C76U G120C G122U U129C | -6.98
35 | C8U C64A | -6.53
36 | C8U G44A C101U U116C | -1.58
37 | U9A G52A G65C U126C | -5.92
38 | C8U U14A | -0.398
39 | C8U U81A A84G | -0.331
40 | C8U C13G A26C A74C | -6.04
41 | U9A G42A A43G G47U C56U | -3.28
42 | C8U G93C G120A | 1.29

Row | Variant | polymerase ribozyme fitness (log ratio)
43 | U9A G39U G48A C72G C88U C89U G110C | -6.13
44 | C8U C12A G45A C56A | 0.0537
45 | U9A A37U U81G | -2.86
46 | U9A C31G G61U A83C G107C | -1.25
47 | U9A G52A C56A | -1.03
48 | C8U G39C U96C C101U U116A | -3.66
49 | C8U G52U G61C C73G U87C U130A | -2.65
50 | C8U C13G C53G C72G U87A U133C | -2.29
51 | U9A A24G | -0.725
52 | C8U C70G A111U | -6.19
53 | C8U C73U | 1.07
54 | C8U G71C U87A | -2.97
55 | C8U G19A A46U C73A G110U | -5.19
56 | U9A C11U C76U A84C | -0.377
57 | C8U U78C | 0.388
58 | C8U U78A | 0.175
59 | U9A C13U C62A C79G C94A U132A | -4.57
60 | C8U C101A | -0.038
61 | C8U C101U | 0.244
62 | C8U U9G G60A | -0.0864
63 | C8U C62G U106G U112A | -2.63

Row | Variant | polymerase ribozyme fitness (log ratio)
64 | U9A G39U G45U | -0.618
65 | U9A C11U A66C G117U | -5.04
66 | U9A G52U C72A C88U C124A | 1.2
67 | U9A A27C G117C | -5.71
68 | C8U C11U A41G G45C G48U C73U C124A G128A | -5.7
69 | C8U C101A U112A | 1.32
70 | C8U C13G C102A G122A C123G | -0.13
71 | C8U C20G A111C C123A | -5.26
72 | U9A A27C G71A G117C | -6.31
73 | U9A G44C U55C U109G | -4.29
74 | C8U C53A C99U C101G | -3.52
75 | C8U C12G G42U A74U C88A | -1.72
76 | U9A C101G | -1.55
77 | C8U G47C C53G U109G | -6.29
78 | C8U U9G C12A G58A | 0.43
79 | U9A G110U | -0.815
80 | U9A C49U G110A | -1.43
81 | U9A A46U U59C U78A C89G U109A | -7.76
82 | U9A A119G | 0.948
83 | U9A C53A U87G | 0.985
84 | U9A C49U | -0.088
